Reference: the supplement of paper PMC12764529
± gives the half width of the 95% confidence interval.

Experiments:
[1] = folding stability dG unfold (combined trypsin and chymotrypsin); higher = more stable
Summary of the method: (§1)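 Designed mini-proteins (under 80 residues, no cysteine) in a PA-tagged cDNA display construct were digested with trypsin and chymotrypsin. Each protease was used at 11 concentrations (threefold dilutions) plus a no-protease condition, followed by sequencing. K50 was inferred by Bayesian fitting of sequencing counts, and unfolding free energy was derived against a sequence-predicted unfolded-state K50 and a shared folded-state K50, per protease or combined. Only designs with AlphaFold2 dimer inter-PAE above 15 were kept.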

[2] = folding stability dG unfold from trypsin proteolysis; higher = more stable
Summary of the method: as §1

[3] = folding stability dG unfold from chymotrypsin proteolysis; higher = more stable
Summary of the method: as §1

Row | Sequence | folding stability dG unfold [1] [kcal/mol] | folding stability dG unfold [2] [kcal/mol] | folding stability dG unfold [3] [kcal/mol]
1 | SAGGPKKRKWVTFTIDIYIPTPPGQSIEDEARKLAENLGIEITDVEVEPHPNGMVKIDVTVTIWIPYSAGGS [r8_292_TrROS] | 3.91 ± 0.13 | 2.84 ± 0.062 | 4.37 ± 0.097
2 | SAGGSAGGSEEILKALGVEPGDEVEIEMTPEELEELLALPGVEPVRVEERPDGRLRVRIRILPSAGGSAGGS [r12_750_TrROS_Hall] | 2.99 ± 0.1 | 3.14 ± 0.11 | 2.93 ± 0.077
3 | SAGGSAGGELEELPGLKVVAVFELPGNRRLVLFEAEGGRYLLLVEGEGTRLVPVPEDVSLEELASAGGSAGG [r6_680_TrMRF] | 3.179 ± 0.03 | 2.73 ± 0.043 | 3.394 ± 0.031
4 | SAPNIEIDYNKDNGMITIRLPGTGVEYMIPMPDGQLMAIDIEVKPDPDGKRKISIEIYFPDGKEHEFEISAG [r14_675_TrROS] | 2.3 ± 0.39 | 2.19 ± 0.29 | 2.45 ± 0.17
5 | SAGGKPKVEIKIEEIPVDGELYLVIEIKVEEKNATLTLTLPNGEEITMEFDEETGTVRIIARIPLEDLSAGG [r13_380_TrROS_Hall] | 3.12 ± 0.22 | 3.24 ± 0.29 | 3.09 ± 0.15
6 | SAGGSAGGSAGPEITVVKAPDEGYYYLIKLKVTYTLRDPETTAPLAEFEVEYYFLDRGSASAGGSAGGSAGG [r17_124_TrMRF] | 4.58 ± 0.47 | 3.3 ± 0.28 | 4.91 ± 0.12
7 | SAGGSAGGSMVEYTFTVYDPRTGKETLFTVPSDIPFEEAKEKVEKEIRKGLPPNYTVTFTKPASAGGSAGGS [r20_213_JUSTAS] | 1.58 ± 0.089 | 1.75 ± 0.035 | 1.45 ± 0.11
8 | SAGGFIRIETPNGKKISPEVREEAEEAIRDGDWDDAVKKISDWLRERFGHPMPIKIEVMMPPPKPPKSAGGS [r8_48_TrROS] | 0.995 ± 0.18 | 0.547 ± 0.061 | 1.19 ± 0.11
9 | SAGGMILEIEFPPELIEELLEKLKKEFPDVEVKPLKIEYDPETGLVKVPILVKTKNPEEVEKIKKLAASAGG [r13_539_TrMRF] | 2.83 ± 0.11 | 2.91 ± 0.15 | 2.78 ± 0.091
10 | SASAAEEIERALLPLPNIPTAPLATFTLPDAPVEVVSYDPVTGRVLVRLTGTGALFVFDPETGEAELLPSAG [r14_359_TrMRF] | 2.7 ± 0.34 | 2.56 ± 0.16 | 2.62 ± 0.054
11 | SAGGSAGGSDEEVEVTLYPVDPSAPDDTVYYAEVTFPNGLVARYRFRKKDGKVEGELVEVKPASAGGSAGGS [r12_1049_TrMRF] | 1.91 ± 0.083 | 1.65 ± 0.048 | 1.95 ± 0.11
12 | SAGGSAGGSAGGLPEDIELEVEPLEITLEDGSRVRILIARAPDPEIAAIDIEVFPPDDPKSAGGSAGGSAGG [r11_338_TrMRF] | 0.559 ± 0.13 | 0.417 ± 0.11 | 0.51 ± 0.071
13 | SAGGGLSPDTPVNYVVFVELPNGERRTFNVPGPAGRPEVAIAIAEKLREEGYEVKAIFPGEGVIVVGSAGGS [r8_497_TrMRF] | 2.98 ± 0.08 | 2.88 ± 0.12 | 3.117 ± 0.0089
14 | SAGGKVVVLTFPKDNPEEVREALAKLPNVVRVEVEKVNDRYLAVAELEGELAVFVSLPDGRYVLLVLGSAGG [r13_907_TrMRF] | 2.73 ± 0.043 | 2.36 ± 0.091 | 2.994 ± 0.021
15 | SMVKVEIEEENGEKTIRIVNEETGVVVEIKFPEGEEVIEVPSVEELVEELKELGENIEITKIEPLSEEELSA [r9_1102_TrROS_Hall] | 0.661 ± 0.25 | 0.425 ± 0.14 | 0.497 ± 0.084
16 | SAGGSASNIKTEEKEYPDGKVVVKYSSDPNITYVYYYPPGGLELVETLDSNGNVISKKLVPKGKLISAGGSA [r15_419_JUSTAS] | 0.832 ± 0.06 | 0.607 ± 0.049 | 0.959 ± 0.097
17 | SAGGSAGGSLNPEKPSVRIRIKVQKPDGSYEEIDIEVPFQDIPDVIDELKKKGYKILSIELEPSAGGSAGGS [r12_986_TrMRF] | 4.37 ± 0.18 | 4.45 ± 0.18 | 4.31 ± 0.08
18 | SAGGSLVTTEFPGVTITTDPATGVLTVEASPEEVERLIEALGPEFNPVEIRRLPDGSYLLTLPVTPPSAGGS [r8_415_JUSTAS] | 2.1 ± 0.03 | 2.13 ± 0.03 | 2.042 ± 0.02
19 | SAGGMPKTITVERTLDVDPAVLASTTPEELVARVVEELRAEGVPISSVDPQTITRGATTVTVRVTLLESAGG [r13_432_JUSTAS] | 2.08 ± 0.029 | 1.662 ± 0.014 | 2.322 ± 0.023
20 | SAGGSAGGSKKVKIEINVVVPPGMTPEKAKQMAEEFAREIAEAYGGKDVKVKVRIMYIPPDQFSAGGSAGGS [r12_522_TrROS] | 2.08 ± 0.13 | 2.04 ± 0.084 | 2.19 ± 0.066
21 | SAMVIPAEVRLPGTPEEVLEKAREFADTLAARFRELGFEVVAVELEEIEPGEAVVRLRIVVARPDEEFPSAG [r14_973_TrMRF] | 2.85 ± 0.069 | 2.75 ± 0.086 | 2.79 ± 0.03
